1 molecule from patent US20260217813A1 (published 2026) can be followed below.

The target of the assay is T1, IL-12 (Human IL12 (His Tag)), Sino Biological Cat. No. CT-050-H08H-20 (human, UniProt P29460 23-328; P29459 23-219).
T1 construct: Bought His-tagged p35/p40 heterodimer
T1 sequence (looked up) 1: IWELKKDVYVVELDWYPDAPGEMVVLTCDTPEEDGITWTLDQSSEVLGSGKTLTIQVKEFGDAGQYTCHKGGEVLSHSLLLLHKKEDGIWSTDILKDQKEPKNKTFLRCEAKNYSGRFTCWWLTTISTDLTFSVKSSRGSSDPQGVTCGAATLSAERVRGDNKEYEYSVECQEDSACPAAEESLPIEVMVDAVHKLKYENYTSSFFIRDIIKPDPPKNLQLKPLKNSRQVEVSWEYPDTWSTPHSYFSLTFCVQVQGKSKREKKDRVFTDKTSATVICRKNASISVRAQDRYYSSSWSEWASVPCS
T1 sequence (looked up) 2: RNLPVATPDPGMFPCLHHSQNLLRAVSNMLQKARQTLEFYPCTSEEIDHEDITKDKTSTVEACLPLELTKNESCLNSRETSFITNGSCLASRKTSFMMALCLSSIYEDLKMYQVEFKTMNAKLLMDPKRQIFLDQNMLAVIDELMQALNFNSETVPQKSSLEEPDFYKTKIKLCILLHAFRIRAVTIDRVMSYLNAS
Put plainly: FACS competition, IL12-His (40 nM mixed 1:1) on 293T-IL-12RB1&IL-23R cells. On the procedure: 200 μL of 1% PBSA was added into each sample, and the mixture was centrifuged at 1200 rpm for 5 min to discard the supernatant. According to experiment design, correspondingly diluted antibody (highest final concentration of 60 μg/mL, 3-fold dilution, 8 concentrations in total) and IL12-His (Sino Biological, Cat. No.: CT-050-H08H-20) (40 nM) were mixed at a ratio of 1:1, and a blank control was set. The mixture of antibody and IL12 was incubated on ice for 30 min and then added to the cell precipitate at 100 μL/sample. The resulting mixture was well mixed and incubated on ice for 60 min. 200 μL of 1% PBSA was added, and the mixture was centrifuged at 1200 rpm for 5 min to discard the supernatant, and then washed twice. THETM His tag antibody (FITC) (Genscript, Cat. No.: A01620) was diluted at a ratio of 1:500 and added to each tube at 100 μL. The mixture was well mixed and incubated on ice for 40 min in the absence of light. 200 μL of 1% PBSA was added, and the mixture was centrifuged at 1200 rpm for 5 min to discard the supernatant, and then washed twice. 1% PBSA was added at 200 μL/tube, and the cells were resuspended and transferred to a flow cytometry tube for testing.

B1: H8L15 (antibody, human IgG1, kappa, V domains shown)
VH: EVQLVQSGAEVKKPGESLKISCQSSGYTFTSYWIGWVRQMPGQGLEWIGIMSPVDSDIRYNPMFRGQVTMSVDKSSSTAYLQWSSLKASDTAMYYCARRRPGQGYFDFWGQGTMVTVSS
VL: EIVLTQSPATLSASPGERATISCRASQSVGTWVAWYQQKPGQAPRSLIYAASNLQSGIPARFSGSGSGTDFTLTISSLEPEDFAVYYCQQYNIYPYTFGQGTRLEIKR
notes: IgG1 (P01857) / kappa (P01834) constant regions
The molecule B1 returned an EC50 of 1.46 µg/mL.

Broadly, the EC50 is the midpoint of the concentration-response curve.
